Measurements published in the Immune Epitope Database (IEDB).

How the values were obtained:
[1] = target: HLA-B*39:01; assay: IEDB peptide-MHC binding, purified MHC/competitive/fluorescence; filed as Kd, often an IC50 or EC50 that approximates it; ≥ and ≤ were set here for values at or beyond the usual limits of such assays; conditions: source organism: Mycobacterium tuberculosis variant bovis BCG str. Pasteur 1173P2
[2] = target: HLA-B*15:42; assay: as above; conditions: source organism: Mycobacterium tuberculosis variant bovis BCG str. Pasteur 1173P2
[3] = target: HLA-B*45:06; assay: as above; conditions: source organism: Mycobacterium tuberculosis variant bovis BCG str. Pasteur 1173P2
[4] = target: HLA-A*01:01; assay: as above; conditions: source organism: Mycobacterium tuberculosis variant bovis BCG str. Pasteur 1173P2
[5] = target: HLA-B*15:01; assay: as above; conditions: source organism: Mycobacterium tuberculosis variant bovis BCG str. Pasteur 1173P2
[6] = target: HLA-B*83:01; assay: as above; conditions: source organism: Mycobacterium tuberculosis variant bovis BCG str. Pasteur 1173P2
[7] = target: HLA-B*51:01; assay: IEDB peptide-MHC binding, purified MHC/direct/fluorescence; filed as Kd, often an IC50 or EC50 that approximates it; ≥ and ≤ were set here for values at or beyond the usual limits of such assays
[8] = target: HLA-B*27:05; assay: as above
[9] = target: HLA-A*69:01; assay: as above; conditions: source organism: Mycobacterium tuberculosis
[10] = target: HLA-A*11:01; assay: as above; conditions: source organism: Mycobacterium tuberculosis
[11] = target: HLA-B*46:01; assay: as above; conditions: source organism: Mycobacterium tuberculosis
[12] = target: HLA-B*48:01; assay: as above; conditions: source organism: Mycobacterium tuberculosis
[13] = target: HLA-A*03:01; assay: as above
[14] = target: HLA-B*40:01; assay: as above; conditions: source organism: Mycobacterium tuberculosis
[15] = target: HLA-B*18:01; assay: as above; conditions: source organism: Mycobacterium tuberculosis
[16] = target: HLA-A*02:01; assay: as above; conditions: source organism: Mycobacterium tuberculosis
[17] = target: HLA-B*15:09; assay: as above; conditions: source organism: Mycobacterium tuberculosis str. Haarlem
[18] = target: HLA-B*57:01; assay: as above
[19] = target: HLA-B*58:01; assay: as above
[20] = target: HLA-A*26:01; assay: as above; conditions: source organism: Mycobacterium tuberculosis str. Haarlem
[21] = target: HLA-A*31:01; assay: as above
[22] = target: HLA-B*15:17; assay: as above; conditions: source organism: Mycobacterium tuberculosis
[23] = target: HLA-B*39:01; assay: as above
[24] = target: HLA-A*01:01; assay: IEDB peptide-MHC binding, purified MHC/competitive/fluorescence; ≥ and ≤ were set here for values at or beyond the usual limits of such assays
[25] = target: HLA-A*02:01; assay: as above
[26] = target: HLA-A*24:02; assay: as above
[27] = target: HLA-B*44:02; assay: IEDB peptide-MHC binding, purified MHC/direct/fluorescence; filed as Kd, often an IC50 or EC50 that approximates it; ≥ and ≤ were set here for values at or beyond the usual limits of such assays
[28] = target: HLA-A*01:01; assay: as above
[29] = target: HLA-B*07:02; assay: as above
[30] = target: HLA-B*15:01; assay: IEDB peptide-MHC binding, purified MHC/competitive/fluorescence; ≥ and ≤ were set here for values at or beyond the usual limits of such assays
[31] = target: HLA-B*15:01; assay: IEDB peptide-MHC binding, purified MHC/direct/fluorescence; filed as Kd, often an IC50 or EC50 that approximates it; ≥ and ≤ were set here for values at or beyond the usual limits of such assays; conditions: source organism: Mycobacterium tuberculosis
[32] = target: HLA-A*32:01; assay: IEDB peptide-MHC binding, purified MHC/competitive/radioactivity; filed as Kd, often an IC50 or EC50 that approximates it; ≥ and ≤ were set here for values at or beyond the usual limits of such assays; conditions: source organism: Vaccinia virus WR
[33] = target: HLA-B*53:01; assay: as above; conditions: source organism: Dengue virus 3 Martinique/1243/1999
[34] = source organism: Mycobacterium tuberculosis
[35] = source organism: Zaire ebolavirus
[36] = source organism: Mammarenavirus lassaense
[37] = source organism: Vaccinia virus WR

RPRCAYLPF
Kd [1]: ≥ 20 µM
Kd [2]: ≥ 5 µM
Kd [3]: ≥ 5 µM
Kd [4]: ≥ 20 µM
Kd [5]: 2.17 µM
Kd [6]: 0.0317 µM
Kd [7, 34]: ≥ 20 µM
Kd [8, 34]: ≥ 20 µM
Kd [9]: ≥ 20 µM
Kd [10]: ≥ 20 µM
Kd [11]: 5.59 µM
Kd [12]: ≥ 20 µM
Kd [13, 34]: ≥ 20 µM
Kd [14]: ≥ 20 µM
Kd [15]: 5.59 µM
Kd [16]: ≥ 20 µM
Kd [17]: ≥ 20 µM
Kd [18, 34]: ≥ 20 µM
Kd [19, 34]: ≥ 20 µM
Kd [20]: 2.6 µM
Kd [21, 34]: ≥ 20 µM
Kd [22]: 0.197 µM

SPGRKNGSF
Kd ([7]; source organism: Yellow fever virus 1899/81): ≥ 20 µM

MRMGDLHLL
Kd ([23]; source organism: Influenza A virus (A/swine/Italy/1850/1977(H3N2))): 0.0396 µM

TLDGQQFYW
IC50 [24, 35]: 35.3 µM
IC50 [25, 35]: 2.22 µM
IC50 [26, 35]: 0.182 µM

NQFGTMPSL
Kd [23, 36]: 0.0011 µM
Kd [8, 36]: ≥ 20 µM
Kd [27, 36]: ≥ 20 µM
Kd [28, 36]: ≥ 20 µM
Kd [29, 36]: ≥ 20 µM
Kd [13, 36]: ≥ 20 µM
Kd [18, 36]: ≥ 20 µM
Kd [19, 36]: ≥ 20 µM
Kd [21, 36]: ≥ 20 µM

FSTSDGKEY
IC50 [24, 35]: 14.3 µM
IC50 [30, 35]: 11.6 µM

FHVNPAFVL
Kd [23, 34]: 0.014 µM
Kd [8, 34]: ≥ 20 µM
Kd [27, 34]: ≥ 20 µM
Kd [28, 34]: ≥ 20 µM
Kd [10]: ≥ 20 µM
Kd [29, 34]: ≥ 20 µM
Kd [11]: ≥ 20 µM
Kd [13, 34]: ≥ 20 µM
Kd [31]: ≥ 20 µM
Kd [18, 34]: ≥ 20 µM
Kd [19, 34]: ≥ 20 µM
Kd [21, 34]: ≥ 20 µM

KMDNGTLEF
IC50 [24, 37]: 15 µM
IC50 [25, 37]: 6.36 µM
IC50 [30, 37]: 24.4 µM
IC50 [26, 37]: 1.06 µM
Kd [32]: 0.000923 µM

HPGFTILAL
Kd [33]: 0.0003 µM
Kd ([7]; source organism: dengue virus type 3): ≥ 20 µM

HKDGAFFLY
IC50 ([24]; source organism: Sudan ebolavirus): 6.35 µM
